Source: PMC9352680, “A comprehensive thermodynamic model for RNA binding by the Saccharomyces cerevisiae Pumilio protein PUF4”

T1: PUF4 RNA-binding domain (Saccharomyces cerevisiae, UniProt P25339 537-888)
T1 sequence: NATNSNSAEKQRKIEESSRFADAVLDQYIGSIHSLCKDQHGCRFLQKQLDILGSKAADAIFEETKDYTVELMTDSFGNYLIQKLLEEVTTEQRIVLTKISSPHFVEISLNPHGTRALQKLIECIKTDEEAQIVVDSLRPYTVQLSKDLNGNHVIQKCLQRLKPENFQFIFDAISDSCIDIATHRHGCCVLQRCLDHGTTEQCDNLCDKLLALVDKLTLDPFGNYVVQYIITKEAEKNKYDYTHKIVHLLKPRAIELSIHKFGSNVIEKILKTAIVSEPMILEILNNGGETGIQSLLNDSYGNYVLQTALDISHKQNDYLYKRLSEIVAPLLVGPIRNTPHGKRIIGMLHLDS

B1: Ic_S2_P3E.1_K3.1_C3.1_H3.1_A3.1_F3.1_[T7C]_[A8G]_T3.1 (ssRNA)
RNA: UUUGAUUAAUAUGAUAUCGUUCUUUCUUGUAUACGUUCUUUCUCGAUAUCAUAUUAAUCUUU
B2: Ic_S2_P3E.1_K3.1_C3.1_H3.1_A3.1_F3.1_[T7A]_[A8T]_T3.1 (ssRNA)
RNA: UUUGAUUAAUAUGAUAUCGUUCUUUCUUGUAUAAUUUCUUUCUCGAUAUCAUAUUAAUCUUU
B3: Ia_S2_P3E.1_K3.1_C3.1_H3.1_[T1C]_A3.1_F3.1_T3.1 (ssRNA)
RNA: UUUGAUUAAUAUGAUAUCGUUCUUUCUCGUAUAUAUUCUUUCUCGAUAUCAUAUUAAUCUUU
B4: Ic_S2_P3E.1_K3.1_C3.1_H3.1_A3.1_F3.1_[T7C]_[A8C]_T3.1 (ssRNA)
RNA: UUUGAUUAAUAUGAUAUCGUUCUUUCUUGUAUACCUUCUUUCUCGAUAUCAUAUUAAUCUUU
B5: Ib_S2_P3E.1_K3.1_C3.1_H3.1_[T1C]_A3.1_F3.1_[T7C]_T3.1 (ssRNA)
RNA: UUUGAUUAAUAUGAUAUCGUUCUUUCUCGUAUACAUUCUUUCUCGAUAUCAUAUUAAUCUUU
B6: Ic_S2_P3E.1_K3.1_C3.1_H3.1_A3.1_F3.1_[T7A]_[A8C]_T3.1 (ssRNA)
RNA: UUUGAUUAAUAUGAUAUCGUUCUUUCUUGUAUAACUUCUUUCUCGAUAUCAUAUUAAUCUUU
B7: Ib_S2_P3E.1_K3.1_C3.1_H3.1_A3.1_F3.1_[T7C]_[A8T]_T3.1 (ssRNA)
RNA: UUUGAUUAAUAUGAUAUCGUUCUUUCUUGUAUACUUUCUUUCUCGAUAUCAUAUUAAUCUUU

What follows are binders tested against T1, PUF4 RNA-binding domain (assay: Mg; RNA-MaP; 20 mM Na-HEPES pH 7.4, 30 mM KOAc, 0.75 mM MgCl2, 0.1% Tween-20, 5% glycerol, 0.1 mg/mL BSA, 2 mM DTT; 25 C; 0.0125-409.6 nM protein). Conditions: tags: N-His6-TEV cleaved; C-SNAP kept, Cy3B-labelled; label: tethered on chip by stalled RNA polymerase.
Work on UCUCUUUGUAUACCUCUUUAUCUCUU (ssRNA) [Ie_S1_P4E.1_K4.1_C4.1_H4.1_A4.1_[+6CCTCT]_F4.1_T4.1] yielded a Kd of 27.5 nM. Work on UCUCUUUGUACCUUAUUAUCUCUU (ssRNA) [Ie_S1_P4E.1_K4.1_C4.1_H4.1_[+4CCT]_A4.1_F4.1_T4.1] yielded a Kd of 4.83 nM. In the case of UCUCUUUGUAUCUCAUUAUCUCUU (ssRNA) [Ie_S1_P4E.1_K4.1_C4.1_H4.1_A4.1_[+5CTC]_F4.1_T4.1], the Kd is reported as 37.1 nM. Binder UCUCUUUGUACUUUAUUAUCUCUU (ssRNA) [Ie_S1_P5E.1_K5.1_C5.1_H5.1_[+4CT]_A5.1_F5.1_T5.1] has a Kd of 2.73 nM. UCUCUUUGUAUAUCCUUAUCUCUU (ssRNA) [Ie_S1_P4E.1_K4.1_C4.1_H4.1_A4.1_[+7CCT]_F4.1_T4.1] showed a Kd of 16.4 nM. UCUCUUUGUAUAUUUUAUCUCUU (ssRNA) [Ie_S1_P4E.1_K4.1_C4.1_H4.1_A4.1_[+7TT]_F4.1_T4.1] showed a Kd of 4.6 nM. Binder UCUCUUUGUAUACUCUUAUCUCUU (ssRNA) [Ie_S1_P4E.1_K4.1_C4.1_H4.1_A4.1_[+6CTC]_F4.1_T4.1] has a Kd of 8.94 nM. With UCUCUUUGUAUAUCUCUUAUCUCUU (ssRNA) [Ie_S1_P4E.1_K4.1_C4.1_H4.1_A4.1_[+6TCTC]_F4.1_T4.1] the Kd was 24.4 nM. With UCUCUUUGUAUCUCUUAUUAUCUCUU (ssRNA) [Ie_S1_P5E.1_K5.1_C5.1_H5.1_[+4TCTC]_A5.1_F5.1_T5.1] the Kd was 21.8 nM. Binder UCUCUUUGUACCCUUUAUUAUCUCUU (ssRNA) [Ie_S1_P5E.1_K5.1_C5.1_H5.1_[+4CCCT]_A5.1_F5.1_T5.1] has a Kd of 17.8 nM. In the case of UCUCUUUGUAUAUUCUAUCUCUU (ssRNA) [Ie_S1_P4E.1_K4.1_C4.1_H4.1_A4.1_F4.1_[+8CT]_T4.1], the Kd is reported as 5.4 nM. Work on UCUCUUUGUAUCCUCAUUAUCUCUU (ssRNA) [Ie_S1_P4E.1_K4.1_C4.1_H4.1_A4.1_[+5CCTC]_F4.1_T4.1] yielded a Kd of 38.3 nM. UCUCUUUGUAUUUUAUUAUCUCUU (ssRNA) [Ie_S1_P5E.1_K5.1_C5.1_H5.1_[+4TT]_A5.1_F5.1_T5.1] showed a Kd of 2.74 nM. With UCUCUUUGUAUAUCUUUAUCUCUU (ssRNA) [Ie_S1_P4E.1_K4.1_C4.1_H4.1_A4.1_[+6TCT]_F4.1_T4.1] the Kd was 13.9 nM. Work on UCUCUUUGUAUUUCAUUAUCUCUU (ssRNA) [Ie_S1_P4E.1_K4.1_C4.1_H4.1_A4.1_[+5TTC]_F4.1_T4.1] yielded a Kd of 39.7 nM. Binder UCUCUUUGUAUAUCUCUUUAUCUCUU (ssRNA) [Ie_S1_P4E.1_K4.1_C4.1_H4.1_A4.1_[+6TCTCT]_F4.1_T4.1] has a Kd of 14.7 nM. With B1 the Kd was 35.1 nM. With B2 the Kd was 6.77 nM. B3 gave a Kd of 136 nM. B4 was tested, and the Kd was 21.1 nM. Binder B5 has a Kd of 649 nM. Binder B6 has a Kd of 27.7 nM. In the case of B7, the Kd is reported as 3.86 nM. In the case of UCUCUUUGUAUUCUAUUAUCUCUU (ssRNA) [Ie_S1_P5E.1_K5.1_C5.1_H5.1_A5.1_[+5TC]_F5.1_T5.1], the Kd is reported as 3.27 nM. Work on UCUCUUUGUAUCCUCUAUUAUCUCUU (ssRNA) [Ie_S1_P5E.1_K5.1_C5.1_H5.1_A5.1_[+5CCTC]_F5.1_T5.1] yielded a Kd of 23.9 nM. With UCUCUUUGUAUACCCUUUAUCUCUU (ssRNA) [Ie_S1_P4E.1_K4.1_C4.1_H4.1_A4.1_[+6CCCT]_F4.1_T4.1] the Kd was 48.6 nM. Binder UCUCUUUGUAUUCCUUAUUAUCUCUU (ssRNA) [Ie_S1_P4E.1_K4.1_C4.1_H4.1_[+4TTCCT]_A4.1_F4.1_T4.1] has a Kd of 19 nM. For UCUCUUUGUAUCCCAUUAUCUCUU (ssRNA) [Ie_S1_P4E.1_K4.1_C4.1_H4.1_A4.1_[+5CCC]_F4.1_T4.1], the Kd was 76.1 nM. With UCUCUUUGUACCCUUAUUAUCUCUU (ssRNA) [Ie_S1_P4E.1_K4.1_C4.1_H4.1_[+4CCCT]_A4.1_F4.1_T4.1] the Kd was 6.31 nM. UCUCUUUGUAUACUCUUUAUCUCUU (ssRNA) [Ie_S1_P4E.1_K4.1_C4.1_H4.1_A4.1_[+6CTCT]_F4.1_T4.1] showed a Kd of 12.6 nM. UCUCUUUGUAUAUCCCUAUCUCUU (ssRNA) [Ie_S1_P4E.1_K4.1_C4.1_H4.1_A4.1_[+7CCC]_F4.1_T4.1] gave a Kd of 31.9 nM. For UCUCUUUGUAUAUUUUUAUCUCUU (ssRNA) [Ie_S1_P4E.1_K4.1_C4.1_H4.1_A4.1_[+7TTT]_F4.1_T4.1], the Kd was 5.93 nM. For UCUCUUUGUAUUCCUAUUAUCUCUU (ssRNA) [Ie_S1_P5E.1_K5.1_C5.1_H5.1_A5.1_[+5TCC]_F5.1_T5.1], the Kd was 10.3 nM. For UCUCUUUGUACCCUAUUAUCUCUU (ssRNA) [Ie_S1_P4E.1_K4.1_C4.1_H4.1_[+4CCC]_A4.1_F4.1_T4.1], the Kd was 5.85 nM. UCUCUUUGUAUCCCUAUUAUCUCUU (ssRNA) [Ie_S1_P5E.1_K5.1_C5.1_H5.1_A5.1_[+5CCC]_F5.1_T5.1] was tested, and the Kd was 20 nM. Work on UCUCUUUGUAUAUUCUCUAUCUCUU (ssRNA) [Ie_S1_P4E.1_K4.1_C4.1_H4.1_A4.1_F4.1_[+8CTCT]_T4.1] yielded a Kd of 7.11 nM. In the case of UCUCUUUGUAUACUUUUAUCUCUU (ssRNA) [Ie_S1_P4E.1_K4.1_C4.1_H4.1_A4.1_[+6CTT]_F4.1_T4.1], the Kd is reported as 6.8 nM. UCUCUUUGUAUCCUAUUAUCUCUU (ssRNA) [Ie_S1_P4E.1_K4.1_C4.1_H4.1_[+4TCC]_A4.1_F4.1_T4.1] was tested, and the Kd was 5.92 nM. UCUCUUUGUAUUUAUUAUCUCUU (ssRNA) [Ie_S1_P4E.1_K4.1_C4.1_H4.1_[+4TT]_A4.1_F4.1_T4.1] was tested, and the Kd was 16.2 nM. UCUCUUUGUAUUUCCAUUAUCUCUU (ssRNA) [Ie_S1_P4E.1_K4.1_C4.1_H4.1_A4.1_[+5TTCC]_F4.1_T4.1] showed a Kd of 96.6 nM. With UCUCUUUGUAUACUCUCUUAUCUCUU (ssRNA) [Ie_S1_P4E.1_K4.1_C4.1_H4.1_A4.1_[+6CTCTC]_F4.1_T4.1] the Kd was 10.9 nM. UCUCUUUGUAUCUUAUUAUCUCUU (ssRNA) [Ie_S1_P4E.1_K4.1_C4.1_H4.1_[+4TCT]_A4.1_F4.1_T4.1] was tested, and the Kd was 4 nM. For UCUCUUUGUACUCUUAUUAUCUCUU (ssRNA) [Ie_S1_P5E.1_K5.1_C5.1_H5.1_[+4CTC]_A5.1_F5.1_T5.1], the Kd was 6.55 nM. With UCUCUUUGUAUACCUUAUCUCUU (ssRNA) [Ie_S1_P4E.1_K4.1_C4.1_H4.1_A4.1_[+6CC]_F4.1_T4.1] the Kd was 8.34 nM. For UCUCUUUGUAUACCUCUUAUCUCUU (ssRNA) [Ie_S1_P4E.1_K4.1_C4.1_H4.1_A4.1_[+6CCTC]_F4.1_T4.1], the Kd was 41.5 nM. For UCUCUUUGUACCUCUUAUUAUCUCUU (ssRNA) [Ie_S1_P4E.1_K4.1_C4.1_H4.1_[+4CCTCT]_A4.1_F4.1_T4.1], the Kd was 27.7 nM. UCUCUUUGUAUUCCAUUAUCUCUU (ssRNA) [Ie_S1_P4E.1_K4.1_C4.1_H4.1_A4.1_[+5TCC]_F4.1_T4.1] gave a Kd of 62 nM. In the case of UCUCUUUGUAUUCUCAUUAUCUCUU (ssRNA) [Ie_S1_P5E.1_K5.1_C5.1_H5.1_A5.1_[+6CTC]_F5.1_T5.1], the Kd is reported as 33.8 nM. UCUCUUUGUAUCUAUUAUCUCUU (ssRNA) [Ie_S1_P5E.1_K5.1_C5.1_H5.1_A5.1_[+5C]_F5.1_T5.1] gave a Kd of 13.7 nM. UCUCUUUGUAUCUCUAUUAUCUCUU (ssRNA) [Ie_S1_P5E.1_K5.1_C5.1_H5.1_A5.1_[+5CTC]_F5.1_T5.1] gave a Kd of 13.2 nM. Work on UCUCUUUGUAUUCUCUAUUAUCUCUU (ssRNA) [Ie_S1_P5E.1_K5.1_C5.1_H5.1_A5.1_[+5TCTC]_F5.1_T5.1] yielded a Kd of 22.9 nM. Binder UCUCUUUGUAUAUCUUAUCUCUU (ssRNA) [Ie_S1_P4E.1_K4.1_C4.1_H4.1_A4.1_[+7CT]_F4.1_T4.1] has a Kd of 6.9 nM. With UCUCUUUGUACCUCUAUUAUCUCUU (ssRNA) [Ie_S1_P4E.1_K4.1_C4.1_H4.1_[+4CCTC]_A4.1_F4.1_T4.1] the Kd was 12.7 nM. For UCUCUUUGUAUAUUCUUAUCUCUU (ssRNA) [Ie_S1_P4E.1_K4.1_C4.1_H4.1_A4.1_[+6TTC]_F4.1_T4.1], the Kd was 6.67 nM. UCUCUUUGUAUCCCUUAUUAUCUCUU (ssRNA) [Ie_S1_P4E.1_K4.1_C4.1_H4.1_A4.1_[+5CCCTT]_F4.1_T4.1] showed a Kd of 41 nM. With UCUCUUUGUAUUUCCUAUUAUCUCUU (ssRNA) [Ie_S1_P5E.1_K5.1_C5.1_H5.1_A5.1_[+5TTCC]_F5.1_T5.1] the Kd was 15.9 nM. UCUCUUUGUAUAUUCCUAUCUCUU (ssRNA) [Ie_S1_P4E.1_K4.1_C4.1_H4.1_A4.1_F4.1_[+8CCT]_T4.1] showed a Kd of 8.2 nM. Work on UCUCUUUGUAUAUUUCUAUCUCUU (ssRNA) [Ie_S1_P4E.1_K4.1_C4.1_H4.1_A4.1_[+7TTC]_F4.1_T4.1] yielded a Kd of 5.38 nM. In the case of UCUCUUUGUAUAUCCUAUCUCUU (ssRNA) [Ie_S1_P4E.1_K4.1_C4.1_H4.1_A4.1_[+7CC]_F4.1_T4.1], the Kd is reported as 14.2 nM. UCUCUUUGUAUACCCUUAUCUCUU (ssRNA) [Ie_S1_P4E.1_K4.1_C4.1_H4.1_A4.1_[+6CCC]_F4.1_T4.1] gave a Kd of 35.3 nM.
